Laboratory results from patent US20050010967A1, “SK3-1B GFP transgenic mouse model for spinocerebellar ataxia and hyperexcitable behavior” (The Regents of the University of California, priority 2003, published 2005).

B1: SK3-1B-GFP: SK3-1B coding region inserted in-frame upstream to GFP in pEGFP-N1 expression vector; GFP-tagged truncated SK3 splice variant (protein)
chain: MFSLALKCLISLSTIILLGLIIAYHTREVQLFVIDNGADDWRIAMTYERILYISLEMLVCAIHPIPGEYKFFWTARLAFSYTPSRAEADVDIILSIPMFLRLYLIARVMLLHSKLFTDASSRSIGALNKINFNTRFVMKTLMTICPGTVLLVFSISLWIIAAWTVRVCERYHDQQDVTSNFLGAMWLISITFLSIGYGDMVPHTYCGKGVCLLTGIMGAGCTALVVAVVARKLELTKAEKHVHNFMMDTQLTKRIKNAAANVLRETWLIYKHTKLLKKIDHAKVRKHQRKFLQAIHQLRSVKMEQRKLSDQANTLVDLSKMQNVMYDLITELNDRSEDLEKQIGSLESKLEHLTASFNSLPLLIADTLRQQQQQLLSAIIEARGVSVAVGTTHTPISDSPIGVSSTSFPTPYTSSSSC
modifications: left off: large carriers
notes: SK3-1B coding region inserted in-frame upstream to GFP in pEGFP-N1 expression vector; GFP-tagged truncated SK3 splice variant
B2: SK3-1B-IRES-GFP: Untagged SK3-1B in bicistronic pIRES2-EGFP vector with GFP driven by an internal ribosome entry site (protein)
chain: B1 chain

Columns and labels:
[1] = target: T1, Kv1.3 channels in Jurkat T lymphocytes (Homo sapiens, UniProt P22001); test: Whole cell patch clamp of endogenous Kv1.3 current in Jurkat T lymphocytes; assay type: cell-based
T1 construct: they express SK2 channels and no other SK channels, along with voltage-gated Kv1.3 channels; endogenous in cells; host or cells: Jurkat T lymphocytes (human)
Source text: (§1) Electrophysiology. PC12 and Jurkat T cells were studied in the whole cell configuration of the patch clamp technique with a holding potential of −80 mV. We determined SK and Kv current amplitude in untransfected cells or in cells transfected with SK3-1B-GFP, SK3-1BIRES-GFP or control constructs (GFP vector alone, GFP-Kv1.7). […] Brightly GFP-positive cells were identified under a fluorescence microscope to allow the analysis of cells expressing high levels of the channel constructs for electrophysiological studies. Control constructs were expressed at equivalently high levels as assessed by the intensity of the GFP signal.
(§2) To activate SK channels, the pipette solution contained (in mM): 145 K^+ aspartate, 2 MgCl2, 10 HEPES, 10 K2EGTA, and 8.5 CaCl2 (1 μM free Ca^2+), pH 7.2, 290-310 mOsm. […] The amplitude of the KV current was measured as the maximum current at 30 mV in 160 Na^+ aspartate. […]
(§3) SK3-1B suppresses other SK channels in a dominant-inhibitory manner. The inventors next determined whether SK3-1B could suppress SK2 channels. […] Using the electrophysiological protocol described above for PC12 cells, SK2 and Kv1.3 currents were measured in Jurkat cells. The inward SK2 current, detected at potentials more negative than −40 mV, was blocked by Lei-Dab (FIG. 5a), a highly specific SK2 peptide inhibitor. […]

[2] = target: T2, SK2 channels in Jurkat T lymphocytes (Homo sapiens, UniProt Q9H2S1); test: Whole cell patch clamp of endogenous SK2 current in Jurkat T lymphocytes; assay type: cell-based
T2 construct: The native SK2 current was suppressed by SK3-1B; endogenous in cells; host or cells: Jurkat T lymphocytes (human)
Source text: as §1, §2, §3

[3] = target: T3, endogenous SK3 current in PC12 cells (Rattus norvegicus, UniProt P70605); test: Whole cell patch clamp of endogenous SK (SK3) current in PC12 cells; assay type: cell-based; conditions: transfected PC12 cells, 48 h post-transfection; untransfected 6.24±1.57 nS
T3 construct: these cells natively express SK3 currents; endogenous in cells; host or cells: PC12 (rat pheochromocytoma)
Source text: as §1, §2

[4] = system: endogenous Kv current in PC12 cells; test: Whole cell patch clamp of endogenous Kv current in PC12 cells; assay type: cell-based, rat; conditions: transfected PC12 cells; 160 mM Na+ aspartate external; untransfected 707.94±147.7 pA
Source text: as §1, §2

native SK3 in PC12 cells = test: Immunolabeling and confocal microscopy of native SK3 localization in PC12 cells; assay type: cell-based, rat; conditions: transfected PC12 cells; untransfected 1.72±0.08
Experimental: Immunostaining. Following washing with Dulbecco's phosphate buffered saline (DPBS), cells were fixed with 4% paraformaldehyde for 20 min and washed 2× with DPBS. Permeabilization and blocking was done with 0.2% Triton-X-100 in 10% normal goat serum, followed by a wash with DPBS. Permeabilized cells were incubated with rabbit anti-SK3 antibody (Alomone Labs, Jerusalem, Israel) in a carrier solution containing 1% normal goat serum and 0.2 % sodium azide for 4 h at 4° C. Cells were subsequently washed and incubated with 1 μg/ml Alexa-Fluor 594 (referred to as Alexa-red)-conjugated goat-anti-rabbit-IgG (Molecular Probes) for 1 h at room temperature. […] As an additional test of antibody specificity, the anti-SK3 antibody was shown not to react with SK3-1B protein, an isoform that lacks the SK3 N-terminal epitope detected by the antibody (data not shown). […]
Confocal microscopy. […] The Scion image 4.0.2 program (Scion Corporation, Frederick, Md., USA) was used to determine the pixel intensity of fluorescence that tagged presumptive intracellular and membrane SK3 protein. Three axes were drawn through each stained cell and pixel intensities were measured along each of these axes. […] The average ratio of presumptive membrane to intracellular fluorescence was estimated from these intensity histograms. The expression level of each transfected construct was quantitated as mean pixel intensity. […]

[5] = 100 nM Lei-Dab, untransfected Jurkat T lymphocytes
[6] = transfected Jurkat T lymphocytes, n=4

T1 sequence (P22001 whole entry): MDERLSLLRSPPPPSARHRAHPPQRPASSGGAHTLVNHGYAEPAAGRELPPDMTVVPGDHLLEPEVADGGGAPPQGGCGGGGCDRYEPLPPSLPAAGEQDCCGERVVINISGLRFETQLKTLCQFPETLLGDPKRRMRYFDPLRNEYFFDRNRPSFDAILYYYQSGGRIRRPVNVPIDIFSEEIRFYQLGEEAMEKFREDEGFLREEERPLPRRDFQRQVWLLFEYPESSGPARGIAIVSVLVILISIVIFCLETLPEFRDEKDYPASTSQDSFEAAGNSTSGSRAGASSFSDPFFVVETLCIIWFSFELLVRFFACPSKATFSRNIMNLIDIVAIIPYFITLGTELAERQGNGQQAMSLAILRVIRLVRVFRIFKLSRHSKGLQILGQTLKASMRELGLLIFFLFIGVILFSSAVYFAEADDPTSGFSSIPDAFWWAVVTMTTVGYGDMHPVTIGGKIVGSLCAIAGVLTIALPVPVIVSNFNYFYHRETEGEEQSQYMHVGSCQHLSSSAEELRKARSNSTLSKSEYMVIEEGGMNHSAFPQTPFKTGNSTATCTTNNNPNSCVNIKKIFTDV
T3 sequence (P70605 whole entry): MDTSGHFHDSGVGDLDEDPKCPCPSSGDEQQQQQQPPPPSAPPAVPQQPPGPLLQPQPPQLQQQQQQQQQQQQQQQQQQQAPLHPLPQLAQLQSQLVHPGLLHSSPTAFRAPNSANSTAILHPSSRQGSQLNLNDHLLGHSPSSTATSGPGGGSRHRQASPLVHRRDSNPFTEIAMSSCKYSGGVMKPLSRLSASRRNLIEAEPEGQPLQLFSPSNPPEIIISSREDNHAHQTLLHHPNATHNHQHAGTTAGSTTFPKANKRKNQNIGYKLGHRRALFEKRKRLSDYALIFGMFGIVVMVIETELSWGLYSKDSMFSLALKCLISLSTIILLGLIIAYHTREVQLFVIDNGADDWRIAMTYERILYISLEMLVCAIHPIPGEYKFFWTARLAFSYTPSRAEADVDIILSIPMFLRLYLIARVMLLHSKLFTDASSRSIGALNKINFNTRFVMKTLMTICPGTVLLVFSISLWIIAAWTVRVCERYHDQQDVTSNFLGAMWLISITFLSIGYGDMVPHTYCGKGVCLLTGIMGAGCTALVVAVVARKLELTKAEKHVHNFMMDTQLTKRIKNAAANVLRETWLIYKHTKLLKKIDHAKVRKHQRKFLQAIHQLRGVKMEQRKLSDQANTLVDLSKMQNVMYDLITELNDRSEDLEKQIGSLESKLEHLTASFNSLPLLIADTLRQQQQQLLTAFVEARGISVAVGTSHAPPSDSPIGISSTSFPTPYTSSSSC
T2 sequence (Q9H2S1 whole entry): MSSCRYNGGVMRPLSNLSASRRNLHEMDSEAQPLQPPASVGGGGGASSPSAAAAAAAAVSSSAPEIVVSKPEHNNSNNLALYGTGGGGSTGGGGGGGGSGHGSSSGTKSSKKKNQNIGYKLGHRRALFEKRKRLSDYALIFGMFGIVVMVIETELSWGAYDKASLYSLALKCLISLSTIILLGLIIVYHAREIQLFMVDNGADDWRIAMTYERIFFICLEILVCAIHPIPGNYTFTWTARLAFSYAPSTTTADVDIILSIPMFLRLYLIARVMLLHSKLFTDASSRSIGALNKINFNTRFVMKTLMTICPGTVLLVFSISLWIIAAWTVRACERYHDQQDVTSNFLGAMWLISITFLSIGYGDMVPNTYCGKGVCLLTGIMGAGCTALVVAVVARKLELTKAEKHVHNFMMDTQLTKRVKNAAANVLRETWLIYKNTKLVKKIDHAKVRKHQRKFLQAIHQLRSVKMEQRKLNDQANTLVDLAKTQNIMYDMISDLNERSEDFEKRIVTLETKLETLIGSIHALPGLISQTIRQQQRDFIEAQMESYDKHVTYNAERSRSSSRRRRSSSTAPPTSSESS
Chain of native SK3 in PC12 cells (P70605 whole entry): as the sequence (P70605 whole entry) above

Row | Molecule | Effect on Kv1.3 current [1, 5] | Effect on inward SK2 current [2, 5] | Kv1.3 current in transfected Jurkat T lymphocytes [1, 6] | SK currents (mean±SEM), slope conductance at −80 mV [3] [nS] | SK2 current in transfected Jurkat T lymphocytes [2, 6] | Kv currents (mean±SEM), maximum current at 30 mV [4] [pA] | Ratio of presumptive membrane to intracellular SK3 fluorescence (mean±SEM) (native SK3 in PC12 cells)
1 | Lei-Dab [reference compound] | unaffected | blocked |  |  |  |  | 
2 | B1 |  |  | resembles that in untransfected cells | 0.68±0.08 | no SK2 current is observed | 475.96±61.78 | 1.1±0.09
3 | B2 |  |  |  | 1.1±0.03 |  | 560.37±75.9 | 
